We go through three molecules from publication PMC5256927, “Proteolysis-Dependent Remodeling of the Tubulin Homolog FtsZ at the Division Septum in Escherichia coli” (PLoS ONE, 2017).

The target of one data set is Gfp-ZC67 (E. coli) (UniProt P0A9A6).
In data set [1] the target is Gfp-ZC67(R379E) (E. coli) (UniProt P0A9A6).
Data set [2] concerns the molecule itself. Kind of data set: co-sedimentation; polymers collected by ultracentrifugation (129,000xg, 30 min, 23°C) after 3 min with GTP (2 mM) and a regenerating system in 50 mM MES pH 6.5, 100 mM KCl, 10 mM MgCl2; FtsZ and/or Gfp-FtsZ, 10 μM total; pellets and supernatants by SDS-PAGE.
Data set [3] concerns the molecule itself. Kind of data set: cross-linking + other: sucrose gradient fractionation; without GTP; labeled FtsZ 24 μM in 50 mM MES pH 6.5, 100 mM KCl, 10 mM MgCl2; cross-linked with DSP (0.6 mM), 5–20% sucrose gradient with 40% cushion, 100,000xg, 180 min, 4°C; fractions read by fluorescence.

In turn, “ClpXP (from UniProt P0A6H1 1-424; P0A6G7 15-207) (complex)” showed a degradation of Gfp-ZC67 (3 μM) by ClpXP (1 μM) with ATP (5 mM): loss of Gfp fluorescence after 60 min (% of the initial fluorescence) in the data set with Gfp-ZC67 (E. coli) of 25. Besides, the degradation of Gfp-ZC67(R379E) (3 μM) by ClpXP (1 μM) with ATP (5 mM): loss of fluorescence with time, against Gfp-ZC67 (% more slowly than Gfp-ZC67) in data set [1] amounted to 50.

B1: FtsZ (natural protein, E. coli, UniProt P0A9A6 1-383, looked up)
chain: MFEPMELTNDAVIKVIGVGGGGGNAVEHMVRERIEGVEFFAVNTDAQALRKTAVGQTIQIGSGITKGLGAGANPEVGRNAADEDRDALRAALEGADMVFIAAGMGGGTGTGAAPVVAEVAKDLGILTVAVVTKPFNFEGKKRMAFAEQGITELSKHVDSLITIPNDKLLKVLGRGISLLDAFGAANDVLKGAVQGIAELITRPGLMNVDFADVRTVMSEMGYAMMGSGVASGEDRAEEAAEMAISSPLLEDIDLSGARGVLVNITAGFDLRLDEFETVGNTIRAFASDNATVVIGTSLDPDMNDELRVTVVATGIGMDKRPEITLVTNKQVQQPVMDRYQQHGMAPLTQEQKPVAKVVNDNAPQTAKEPDYLDIPAFLRKQAD
notes: FtsZ, E. coli, cell division protein (tubulin homolog); schematic gives polymerization domain 1-316, unstructured linker 317-369, C-terminal region 370-383; plasmid pET-FtsZ; also called native FtsZ; wild type FtsZ; source: E. coli BL21 (λDE3), purified as described [24,25,72,73]
As for B1, the binding result in data set [2] is “binds”.

B2: Alexa Fluor labeled FtsZ (FtsZ-AF488) (natural protein, E. coli, UniProt P0A9A6 1-383, looked up)
chain: MFEPMELTNDAVIKVIGVGGGGGNAVEHMVRERIEGVEFFAVNTDAQALRKTAVGQTIQIGSGITKGLGAGANPEVGRNAADEDRDALRAALEGADMVFIAAGMGGGTGTGAAPVVAEVAKDLGILTVAVVTKPFNFEGKKRMAFAEQGITELSKHVDSLITIPNDKLLKVLGRGISLLDAFGAANDVLKGAVQGIAELITRPGLMNVDFADVRTVMSEMGYAMMGSGVASGEDRAEEAAEMAISSPLLEDIDLSGARGVLVNITAGFDLRLDEFETVGNTIRAFASDNATVVIGTSLDPDMNDELRVTVVATGIGMDKRPEITLVTNKQVQQPVMDRYQQHGMAPLTQEQKPVAKVVNDNAPQTAKEPDYLDIPAFLRKQAD
modifications: Alexa Fluor 488 label (site not stated)
notes: FtsZ, E. coli, as m1, labeled with Alexa Fluor; schematic gives regions 1-316, 317-369, 370-383; also called labeled fluorescent FtsZ; Fluorescence-labeled FtsZ; source: E. coli BL21 (λDE3), purified, labeled with Alexa Fluor 488; fluorescent active subunits obtained by cycles of polymerization and depolymerization
As a reminder, the stoichiometry N is a count of units in the complex or per binding partner. As to B2, the “stoichiometry N” value in data set [3] was found to be 2.
